Assays:
[1] = system: HeLa Kyoto; assay: solubility in G1/S (NP-40 vs SDS abundance) (log2 ratio); higher = more soluble; conditions: cell cycle stage: G1/S
[2] = system: HeLa Kyoto; assay: melting temperature (median over replicates), in situ; higher = more thermally stable
[3] = system: HeLa Kyoto; assay: solubility change mitosis vs G1/S (difference of NP-40 vs SDS log2 ratios) (log2 ratio difference); higher = more soluble in mitosis
[4] = system: HeLa Kyoto; assay: thermal stability score vs G1/S (z-score of summed log2 fold changes over temperatures); higher = more thermally stable than in G1/S
[5] = cell cycle stage: early G1 (4.5 h after nocodazole release)
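Wherever melting temperature (median over replicates), in situ is given: HeLa Kyoto cells synchronized by double thymidine or nocodazole block, proteins quantified by TMT10plex mass spectrometry, three independent biological replicates.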
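Wherever solubility change mitosis vs G1/S (difference of NP-40 vs SDS log2 ratios) is given: synchronized HeLa Kyoto cells (double thymidine block for G1/S, nocodazole release for mitosis), protein amounts in NP-40 versus SDS lysates quantified by mass spectrometry, three biological replicates.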
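Wherever solubility in G1/S (NP-40 vs SDS abundance) is given: HeLa Kyoto cells arrested at G1/S by double thymidine block, proteins quantified by TMT10plex mass spectrometry in mild NP-40 versus SDS extracts, three biological replicates.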
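Wherever thermal stability score vs G1/S (z-score of summed log2 fold changes over temperatures) is given: synchronized HeLa Kyoto cells, proteins quantified by TMT10plex mass spectrometry, three biological replicates, mitosis taken 0.5 h after nocodazole release, G1/S directly after double thymidine block.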

Sequence | solubility in G1/S (log2) [1] | melting temperature ([2]; cell cycle stage: G1/S) | melting temperature ([2]; cell cycle stage: mitosis) | solubility change mitosis (log2) [3] | thermal stability score [4, 5] | thermal stability score ([4]; cell cycle stage: mitosis)
MYIKQVIIQGFRSYRDQTIVDPFSSKHNVIVGRNGSGKSNFFYAIQFVLSDEFSHLRPEQRLALLHEGTGPRVISAFVEIIFDNSDNRLPIDKEEVSLRRVIGAKKDQYFLDKKMVTKNDVMNLLESAGFSRSNPYYIVKQGKINQMATAPDSQRLKLLREVAGTRVYDERKEESISLMKETEGKREKINELLKYIEERLHTLEEEKEELAQYQKWDKMRRALEYTIYNQELNETRAKLDELSAKRETSGEKSRQLRDAQQDARDKMEDIERQVRELKTKISAMKEEKEQLSAERQEQIKQRTKLELKAKDLQDELAGNSEQRKRLLKERQKLLEKIEEKQKELAETEPKFNSVKEKEERGIARLAQATQERTDLYAKQGRGSQFTSKEERDKWIKKELKSLDQAINDKKRQIAAIHKDLEDTEANKEKNLEQYNKLDQDLNEVKARVEELDRKYYEVKNKKDELQSERNYLWREENAEQQALAAKREDLEKKQQLLRAATGKAILNGIDSINKVLDHFRRKGINQHVQNGYHGIVMNNFECEPAFYTCVEVTAGNRLFYHIVDSDEVSTKILMEFNKMNLPGEVTFLPLNKLDVRDTAYPETNDAIPMISKLRYNPRFDKAFKHVFGKTLICRSMEVSTQLARAFTMDCITLEGDQVSHRGALTGGYYDTRKSRLELQKDVRKAEEELGELEAKLNENLRRNIERINNEIDQLMNQMQQIETQQRKFKASRDSILSEMKMLKEKRQQSEKTFMPKQRSLQSLEASLHAMESTRESLKAELGTDLLSQLSLEDQKRVDALNDEIRQLQQENRQLLNERIKLEGIITRVETYLNENLRKRLDQVEQELNELRETEGGTVLTATTSELEAINKRVKDTMARSEDLDNSIDKTEAGIKELQKSMERWKNMEKEHMDAINHDTKELEKMTNRQGMLLKKKEECMKKIRELGSLPQEAFEKYQTLSLKQLFRKLEQCNTELKKYSHVNKKALDQFVNFSEQKEKLIKRQEELDRGYKSIMELMNVLELRKYEAIQLTFKQVSKNFSEVFQKLVPGGKATLVMKKGDVEGSQSQDEGEGSGESERGSGSQSSVPSVDQFTGVGIRVSFTGKQGEMREMQQLSGGQKSLVALALIFAIQKCDPAPFYLFDEIDQALDAQHRKAVSDMIMELAVHAQFITTTFRPELLESADKFYGVKFRNKVSHIDVITAEMAKDFVEDDTTHG [SMC3] | -0.182 | 52.6 °C | 51.5 °C | -0.0245 | -0.978 | -1.78
MESPGESGAGSPGAPSPSSFTTGHLAREKPAQDPLYDVPNASGGQAGGPQRPGRVVSLRERLLLTRPVWLQLQANAAAALHMLRTEPPGTFLVRKSNTRQCQALCMRLPEASGPSFVSSHYILESPGGVSLEGSELMFPDLVQLICAYCHTRDILLLPLQLPRAIHHAATHKELEAISHLGIEFWSSSLNIKAQRGPAGGPVLPQLKARSPQELDQGTGAALCFFNPLFPGDLGPTKREKFKRSFKVRVSTETSSPLSPPAVPPPPVPVLPGAVPSQTERLPPCQLLRRESSVGYRVPAGSGPSLPPMPSLQEVDCGSPSSSEEEGVPGSRGSPATSPHLGRRRPLLRSMSAAFCSLLAPERQVGRAAAALMQDRHTAAGQLVQDLLTQVRAGPEPQELQGIRQALSRARAMLSAELGPEKLLSPKRLEHVLEKSLHCSVLKPLRPILAARLRRRLAADGSLGRLAEGLRLARAQGPGAFGSHLSLPSPVELEQVRQKLLQLLRTYSPSAQVKRLLQACKLLYMALRTQEGEGAGADEFLPLLSLVLAHCDLPELLLEAEYMSELLEPSLLTGEGGYYLTSLSASLALLSGLGQAHTLPLSPVQELRRSLSLWEQRRLPATHCFQHLLRVAYQDPSSGCTSKTLAVPPEASIATLNQLCATKFRVTQPNTFGLFLYKEQGYHRLPPGALAHRLPTTGYLVYRRAEWPETQGAVTEEEGSGQSEARSRGEEQGCQGDGDAGVKASPRDIREQSETTAEGGQGQAQEGPAQPGEPEAEGSRAAEE [RIN1] | 0.282 | 48.9 °C | 48.6 °C | -0.062 | 0.0327 | 1.21
MDAVNAFNQELFSLMDMKPPISRAKMILITKAAIKAIKLYKHVVQIVEKFIKKCKPEYKVPGLYVIDSIVRQSRHQFGTDKDVFGPRFSKNITATFQYLYLCPSEDKSKIVRVLNLWQKNGVFKIEIIQPLLDMAAGTSNAAPVAENVTNNEGSPPPPVKVSSEPPTQATPNSVPAVPQLPSSDAFAAVAQLFQTTQGQQLQQILQTFQQPPKPQSPALDNAVMAQVQAITAQLKTTPTQPSEQKAAFPPPEQKTAFDKKLLDRFDYDDEPEAVEESKKEDTTAVTTTAPAAAVPPAPTATVPAAAAPAAASPPPPQAPFGFPGDGMQQPAYTQHQNMDQFQPRMMGIQQDPMHHQVPLPPNGQMPGFGLLPTPPFPPMAQPVIPPTPPVQQPFQASFQAQNEPLTQKPHQQEMEVEQPCIQEVKRHMSDNRKSRSRSASRSPKRRRSRSGSRSRRSRHRRSRSRSRDRRRHSPRSRSQERRDREKERERRQKGLPQVKPETASVCSTTLWVGQLDKRTTQQDVASLLEEFGPIESINMIPPRGCAYIVMVHRQDAYRALQKLSRGNYKVNQKSIKIAWALNKGIKADYKQYWDVELGVTYIPWDKVKPEELESFCEGGMLDSDTLNPDWKGIPKKPENEVAQNGGAETSHTEPVSPIPKPLPVPVPPIPVPAPITVPPPQVPPHQPGPPVVGALQPPAFTPPLGIPPPGFGPGVPPPPPPPPFLRPGFNPMHLPPGFLPPGPPPPITPPVSIPPPHTPPISIPNSTIAGINEDTTKDLSIGNPIPTVVSGARGNAESGDSVKMYGSAVPPAAPTNLPTPPVTQPVSLLGTQGVAPGPVIGLQAPSTGLLGARPGLIPLQRPPGMPPPHLQRFPLMPPRPMPPHMMHRGPPPGPGGFAMPPPHGMKGPFPPHGPFVRPGGMPGLGGPGPGPGGPEDRDGRQQPPQQPQQQPQPQAPQQPQQQQQQQPPPSQQPPPTQQQPQQFRNDNRQQFNSGRDQERFGRRSFGNRVENDRERYGNRNDDRDNSNRDRREWGRRSPDRDRHRDLEERNRRSSGHRDRERDSRDRESRREKEEARGKEKPEVTDRAGGNKTVEPPISQVGNVDTASELEKGVSEAAVLKPSEELPAEATSSVEPEKDSGSAAEAPR [SCAF4] | -0.347 | 48.5 °C | 51.4 °C | 0.211 | 0.0642 | -0.063
MASKGAGMSFSRKSYRLTSDAEKSRVTGIVQEKLLNDYLNRIFSSSEHAPPAATSRKPLNFQNLPEHLDQLLQVDNEEEESQGQVEGRLGPSTVVLDHTGGFEGLLLVDDDLLGVIGHSNFGTIRSTTCVYKGKWLYEVLISSQGLMQIGWCTISCRFNQEEGVGDTHNSYAYDGNRVRKWNVTTTNYGKAWAAGDIVSCLIDLDDGTLSFCLNGVSLGTAFENLSRGLGMAYFPAISLSFKESVAFNFGSRPLRYPVAGYRPLQDPPSADLVRAQRLLGCFRAVLSVELDPVEGRLLDKESSKWRLRGQPTVLLTLAHIFHHFAPLLRKVYLVEAVLMSFLLGIVEKGTPTQAQSVVHQVLDLLWLFMEDYEVQDCLKQLMMSLLRLYRFSPIVPDLGLQIHYLRLTIAILRHEKSRKFLLSNVLFDVLRSVVFFYIKSPLRVEEAGLQELIPTTWWPHCSSREGKESTEMKEETAEERLRRRAYERGCQRLRKRIEVVEELQVQILKLLLDNKDDNGGEASRYIFLTKFRKFLQENASGRGNMPMLCPPEYMVCFLHRLISALRYYWDEYKASNPHASFSEEAYIPPQVFYNGKVDYFDLQRLGGLLSHLRKTLKDDLASKANIVIDPLELQSTAMDDLDEDEEPAPAMAQRPMQALAVGGPLPLPRPGWLSSPTLGRANRFLSTAAVSLMTPRRPLSTSEKVKVRTLSVEQRTREDIEGSHWNEGLLLGRPPEEPEQPLTENSLLEVLDGAVMMYNLSVHQQLGKMVGVSDDVNEYAMALRDTEDKLRRCPKRRKDILAELTKSQKVFSEKLDHLSRRLAWVHATVYSQEKMLDIYWLLRVCLRTIEHGDRTGSLFAFMPEFYLSVAINSYSALKNYFGPVHSMEELPGYEETLTRLAAILAKHFADARIVGTDIRDSLMQALASYVCYPHSLRAVERIPEEQRIAMVRNLLAPYEQRPWAQTNWILVRLWRGCGFGYRYTRLPHLLKTKLEDANLPSLQKPCPSTLLQQHMADLLQQGPDVAPSFLNSVLNQLNWAFSEFIGMIQEIQQAAERLERNFVDSRQLKVCATCFDLSVSLLRVLEMTITLVPEIFLDWTRPTSEMLLRRLAQLLNQVLNRVTAERNLFDRVVTLRLPGLESVDHYPILVAVTGILVQLLVRGPASEREQATSVLLADPCFQLRSICYLLGQPEPPAPGTALPAPDRKRFSLQSYADYISADELAQVEQMLAHLTSASAQAAAASLPTSEEDLCPICYAHPISAVFQPCGHKSCKACINQHLMNNKDCFFCKTTIVSVEDWEKGANTSTTSSAA [RNF123] | -0.366 | 50.4 °C | 50.3 °C | 0.0631 | -0.758 | 0.258
MEFQAVVMAVGGGSRMTDLTSSIPKPLLPVGNKPLIWYPLNLLERVGFEEVIVVTTRDVQKALCAEFKMKMKPDIVCIPDDADMGTADSLRYIYPKLKTDVLVLSCDLITDVALHEVVDLFRAYDASLAMLMRKGQDSIEPVPGQKGKKKAVEQRDFIGVDSTGKRLLFMANEADLDEELVIKGSILQKHPRIRFHTGLVDAHLYCLKKYIVDFLMENGSITSIRSELIPYLVRKQFSSASSQQGQEEKEEDLKKKELKSLDIYSFIKEANTLNLAPYDACWNACRGDRWEDLSRSQVRCYVHIMKEGLCSRVSTLGLYMEANRQVPKLLSALCPEEPPVHSSAQIVSKHLVGVDSLIGPETQIGEKSSIKRSVIGSSCLIKDRVTITNCLLMNSVTVEEGSNIQGSVICNNAVIEKGADIKDCLIGSGQRIEAKAKRVNEVIVGNDQLMEI [EIF2B3] | -0.0277 | 50.5 °C | 50.7 °C | -0.222 | -0.882 | -0.4
MRECISIHVGQAGVQIGNACWELYCLEHGIQPDGQMPSDKTIGGGDDSFNTFFSETGAGKHVPRAVFVDLEPTVIDEVRTGTYRQLFHPEQLITGKEDAANNYARGHYTIGKEIIDLVLDRIRKLADQCTGLQGFLVFHSFGGGTGSGFTSLLMERLSVDYGKKSKLEFSIYPAPQVSTAVVEPYNSILTTHTTLEHSDCAFMVDNEAIYDICRRNLDIERPTYTNLNRLISQIVSSITASLRFDGALNVDLTEFQTNLVPYPRIHFPLATYAPVISAEKAYHEQLTVAEITNACFEPANQMVKCDPRHGKYMACCLLYRGDVVPKDVNAAIATIKTKRTIQFVDWCPTGFKVGINYQPPTVVPGGDLAKVQRAVCMLSNTTAVAEAWARLDHKFDLMYAKRAFVHWYVGEGMEEGEFSEAREDMAALEKDYEEVGADSADGEDEGEEY [TUBA1C] | 0.171 | 55.2 °C | 54.6 °C | -0.2 | 0.287 | -2.74
MNGTLDHPDQPDLDAIKMFVGQVPRTWSEKDLRELFEQYGAVYEINVLRDRSQNPPQSKGCCFVTFYTRKAALEAQNALHNMKVLPGMHHPIQMKPADSEKNNAVEDRKLFIGMISKKCTENDIRVMFSSFGQIEECRILRGPDGLSRGCAFVTFTTRAMAQTAIKAMHQAQTMEGCSSPMVVKFADTQKDKEQKRMAQQLQQQMQQISAASVWGNLAGLNTLGPQYLALYLQLLQQTASSGNLNTLSSLHPMGGLNAMQLQNLAALAAAASAAQNTPSGTNALTTSSSPLSVLTSSGSSPSSSSSNSVNPIASLGALQTLAGATAGLNVGSLAGMAALNGGLGSSGLSNGTGSTMEALTQAYSGIQQYAAAALPTLYNQNLLTQQSIGAAGSQKEGPEGANLFIYHLPQEFGDQDLLQMFMPFGNVVSAKVFIDKQTNLSKCFGFVSYDNPVSAQAAIQSMNGFQIGMKRLKVQLKRSKNDSKPY [CELF1] | 0.269 | 47.5 °C | 48.1 °C | -0.0537 | 1.56 | 2.85

From the supplement of paper PMC5998384
